This is an account of results in CN117003877A (XIANGYA HOSPITAL CENTRAL SOUTH UNIV, dated 2023).

In experiment [1] the target is T1, 人源性Prdx1重组蛋白 (recombinant peroxiredoxin 1 protein bought from Abclone) (human, UniProt Q06830 1-199, limits assumed).
T1 construct: Bought recombinant protein; also called 重组prdx1蛋白; 重组Prdx1
T1 sequence (looked up): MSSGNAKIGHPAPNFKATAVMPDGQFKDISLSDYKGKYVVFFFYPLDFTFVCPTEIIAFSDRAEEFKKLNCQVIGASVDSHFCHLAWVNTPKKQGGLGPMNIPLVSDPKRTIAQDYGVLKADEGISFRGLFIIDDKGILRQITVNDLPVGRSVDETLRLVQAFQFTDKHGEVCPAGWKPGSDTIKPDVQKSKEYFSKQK
In words: ELISA on recombinant human Prdx1.

Experiment [2] has as its target T2, 小鼠Prdx1蛋白 (endogenous mouse Prdx1 in liver, lung, kidney tissue and primary macrophages) (mouse, UniProt P35700 2-199).
T2 construct: Endogenous protein, denatured on Western blot; also called 鼠源性Prdx1蛋白; 小鼠的Prdx1蛋白
T2 sequence (looked up): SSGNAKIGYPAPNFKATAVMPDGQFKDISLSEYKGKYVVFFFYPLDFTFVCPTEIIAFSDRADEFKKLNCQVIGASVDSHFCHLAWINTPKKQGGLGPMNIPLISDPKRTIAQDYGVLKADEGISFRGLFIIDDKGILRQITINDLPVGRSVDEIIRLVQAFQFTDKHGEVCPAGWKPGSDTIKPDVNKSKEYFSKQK
In words: Western blot on mouse liver, lung, kidney, primary macrophages.

B1: 抗Prdx1蛋白的单克隆中和抗体 (mouse monoclonal anti-human Prdx1 neutralizing antibody, Example 4) (antibody, V domains shown)
VH: QVQLQQSGPELMKPGASVKISCKATGYTFSNSWIEWVKQRPGHGLEWIGEILPGSGDTDYNEKFKGKATITADTSSNTAYMQLSSLTSEDSAVYYCASPYGDYFFANWGLGTLVTVSA
VL: DIVITQDELSNPVTSGESVSISCRSSKSLLYKDGKTYLNWFLQRPGQSPQLLIYLMSTRAAGVSDRFSGSGSGTDFTLEISRVKAEDVGVYYCQQLVEYPYTFGGGTKLEIK
notes: Mouse (BALB/c) hybridoma IgG purified from ascites on protein G; also called Prdx1单克隆抗体; Prdx1单克隆中和抗体
As for B1, the binding result in experiment [1] and in experiment [2] was “binds” each time.
